The values below come from publication PMC7714071, “Interaction of amyloid beta with humanin and acetylcholinesterase is modulated by ATP” (FEBS Open Bio, 2020).

In assay [1] the target is Aβ from A549 cell‐conditioned media (human (endogenous in A549)). Put plainly: ELISA; antibody (6E10 or 82E1 against Aβ, or anti‐HN, or anti‐AChE) bound to the wells; 300 μL conditioned medium (0.5 μg·μL^−1) added without or with ATP (100 μM, 1 mM); the partner held with the captured protein detected by its primary antibody.
The target is the same in assay [2]. Description: ELISA; single‐site ELISA for oligomerized Aβ (capture 4G8, detection 4G8‐biotin) against two‐site ELISA for total Aβ (capture 6E10, detection 4G8‐biotin); conditioned media, control or immunodepleted of HN or AChE, without or with ATP. (In general: In an ELISA, binding on a coated surface is turned into a signal by an enzyme label.)
Assay [3] deals with Aβ from H1299 cell‐conditioned media (human (endogenous in H1299)). The assay is described as above.

Chain of AChE from A549 cell‐conditioned media (P22303 32-614): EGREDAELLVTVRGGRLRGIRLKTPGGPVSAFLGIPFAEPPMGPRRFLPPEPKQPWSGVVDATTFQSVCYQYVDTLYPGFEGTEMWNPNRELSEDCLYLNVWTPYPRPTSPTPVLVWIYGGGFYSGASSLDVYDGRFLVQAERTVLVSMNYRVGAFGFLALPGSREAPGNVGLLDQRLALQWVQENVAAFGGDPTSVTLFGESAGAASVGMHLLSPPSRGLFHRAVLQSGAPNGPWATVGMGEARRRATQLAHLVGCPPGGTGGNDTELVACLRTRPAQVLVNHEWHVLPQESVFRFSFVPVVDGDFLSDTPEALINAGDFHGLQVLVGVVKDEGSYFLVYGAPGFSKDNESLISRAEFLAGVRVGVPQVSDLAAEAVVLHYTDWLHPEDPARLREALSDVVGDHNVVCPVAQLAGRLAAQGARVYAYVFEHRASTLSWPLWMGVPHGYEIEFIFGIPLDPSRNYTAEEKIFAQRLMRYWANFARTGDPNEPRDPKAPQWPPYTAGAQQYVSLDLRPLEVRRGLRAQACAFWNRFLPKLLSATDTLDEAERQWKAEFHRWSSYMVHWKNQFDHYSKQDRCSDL

For the substance “AChE from A549 cell‐conditioned media (from UniProt P22303 32-614) (enzyme)”, in assay [1], the fold decrease in AChE in a complex with Aβ with 100 μM ATP, relative to samples without added ATP amounted to 2.3 fold.

In assay [2], “Aβ from A549 cell‐conditioned media (peptide)” returned a percent oligomer of the total Aβ that remained after immunodepletion of AChE of 47%, a percent oligomer of the total Aβ that remained after immunodepletion of HN of 86% and a percent oligomer of total Aβ of 63%.

With “Aβ from H1299 cell‐conditioned media (peptide)”, in assay [3], the percent oligomer of the total Aβ that remained after immunodepletion of HN turned out to be 69% and the percent oligomer of total Aβ came to 48%.

Turning to “HN from A549 cell‐conditioned media (peptide)”, in assay [1], the fold increase in HN bound to Aβ with 100 μM ATP, relative to samples without added ATP stood at 1.85 fold and the fold increase in HN bound to Aβ with 1 mM ATP, relative to samples without added ATP stood at 2.5 fold.
